Assay results taken from patent publication US20190241648A1 (STATEN BIOTECHNOLOGY B V, published 2019).
Ends that are not written are not given here.

Tests used:
Assay in all cases: peptide microarray
ApoC3 peptide … G41W = molecular target: T1, ApoC3 peptide … G41W (human, also: cyclic constrained)
T1 peptide: ARWWVTDGFSSLK
Source text: (§1) Amino acids G41 and G46 were highly conserved; substitution of G41 by E, N or Q caused a decrease of spot intensities by ˜70% or higher, whereas exchange of G46 by N was hardly tolerated and resulting in 90% reduced spot intensities. […] Amino acid positions V43, D45 and K51 were also well conserved with a clear preference for the wild type amino acids and a certain tolerance particularly for conservative exchanges by Y, F and I (V43), A, E and K (D45) as well as by R (K51). […] Replacement of V43 by Y, however, increased spot intensity by two fold. Amino acid positions W42 and 48S were poorly conserved or even variable; both positions were susceptible for only a number of amino acid exchanges, and exchange by F, S and T (W42) or by E (S48) even caused a two- to three-fold increase of spot intensity. Amino acid positions A39 and R40 were variable.
(§2) Pre: staining of one of the ApoC3 peptide microarrays was done with the secondary antibody goat anti-human IgG (Fe) DyLight680 (1:5000) and control antibody mouse monoclonal anti-HA (12CA5) DyLight800 (1:2000) to investigate background interactions of the secondary antibody with the antigen-derived peptides that could interfere with the main assays. Subsequent incubation of other ApoC3 peptide microarrays with antibody samples was followed by staining with secondary and control antibodies as well as read-out at scanning intensities of 7/7 (red/green). The additional HA peptides framing the peptide arrays were stained as internal quality control to confirm the assay quality and the peptide microarray integrity.

ApoC3 peptide … G41Q = molecular target: T2, ApoC3 peptide … G41Q (human, also: cyclic constrained)
T2 peptide: ARQWVTDGFSSLK
Source text: as §1, §2

ApoC3 peptide … G41I = molecular target: T3, ApoC3 peptide … G41I (human, also: cyclic constrained)
T3 peptide: ARIWVTDGFSSLK
Source text: as §1, §2

ApoC3 peptide … A39C = molecular target: T4, ApoC3 peptide … A39C (human, cyclic constrained)
T4 peptide: CRGWVTDGFSSLK
Source text: as §1, §2

ApoC3 peptide … K51L = molecular target: T5, ApoC3 peptide … K51L (human, not fully specified; cyclic constrained)
T5 peptide: ARGWVTDGFSSLL
Source text: as §1, §2

ApoC3 peptide … T44E = molecular target: T6, ApoC3 peptide … T44E (human, not fully specified (bridges); also: cyclic constrained)
T6 peptide: ARGWVEDGFSSLK
Source text: as §1, §2

ApoC3 peptide … S49V = molecular target: T7, ApoC3 peptide … S49V (human, not fully specified (bridges); also: cyclic constrained)
T7 peptide: ARGWVTDGFSVLK
Source text: as §1, §2

ApoC3 peptide … V43I = molecular target: T8, ApoC3 peptide … V43I (human, not fully specified; cyclic constrained)
T8 peptide: ARGWITDGFSSLK
Source text: as §1, §2

ApoC3 peptide … D45W = molecular target: T9, ApoC3 peptide … D45W (human, cyclic constrained)
T9 peptide: ARGWVTWGFSSLK
Source text: as §1, §2

ApoC3 peptide … G46L = molecular target: T10, ApoC3 peptide … G46L (human, not fully specified (bridges); also: cyclic constrained)
T10 peptide: ARGWVTDLFSSLK
Source text: as §1, §2

ApoC3 peptide … T44I = molecular target: T11, ApoC3 peptide … T44I (human, not fully specified (bridges); also: cyclic constrained)
T11 peptide: ARGWVIDGFSSLK
Source text: as §1, §2

ApoC3 peptide … K51A = molecular target: T12, ApoC3 peptide … K51A (human, thioether (positions not given here); also: cyclic constrained)
T12 peptide: ARGWVTDGFSSLA
Source text: as §1, §2

ApoC3 peptide … W42M = molecular target: T13, ApoC3 peptide … W42M (human, not fully specified (bridges); also: cyclic constrained)
T13 peptide: ARGMVTDGFSSLK
Source text: as §1, §2

ApoC3 peptide … S49H = molecular target: T14, ApoC3 peptide … S49H (human, cyclic constrained)
T14 peptide: ARGWVTDGFSHLK
Source text: as §1, §2

ApoC3 peptide … W42H = molecular target: T15, ApoC3 peptide … W42H (human, not fully specified (bridges); also: cyclic constrained)
T15 peptide: ARGHVTDGFSSLK
Source text: as §1, §2

ApoC3 peptide … G41Y = molecular target: T16, ApoC3 peptide … G41Y (human, also: cyclic constrained)
T16 peptide: ARYWVTDGFSSLK
Source text: as §1, §2

ApoC3 peptide … S49Q = molecular target: T17, ApoC3 peptide … S49Q (human, cyclic constrained)
T17 peptide: ARGWVTDGFSQLK
Source text: as §1, §2

ApoC3 peptide … T44F = molecular target: T18, ApoC3 peptide … T44F (human, not fully specified (bridges); also: cyclic constrained)
T18 peptide: ARGWVFDGFSSLK
Source text: as §1, §2

ApoC3 peptide … R40V = molecular target: T19, ApoC3 peptide … R40V (human, thioether (positions not given here); also: cyclic constrained)
T19 peptide: AVGWVTDGFSSLK
Source text: as §1, §2

ApoC3 peptide … S48H = ApoC3 peptide … S48H (human, cyclic constrained)
Source text: as §1, §2

ApoC3 peptide … A39Q = molecular target: T20, ApoC3 peptide … A39Q (human, not fully specified (bridges); also: cyclic constrained)
T20 peptide: QRGWVTDGFSSLK
Source text: as §1, §2

[1] = molecular target: T21, ApoC3 peptide … G41T (human)
T21 sequence (peptide, cyclic constrained): ARTWVTDGFSSLK

[2] = molecular target: T22, ApoC3 peptide … D45T (human)
T22 sequence (peptide, cyclic constrained): ARGWVTTGFSSLK

[3] = molecular target: T23, ApoC3 peptide … V43W (human)
T23 sequence (peptide, cyclic constrained): ARGWWTDGFSSLK

[4] = molecular target: T24, ApoC3 peptide … V43T (human)
T24 sequence (peptide, cyclic constrained): ARGWTTDGFSSLK

[5] = molecular target: T25, ApoC3 peptide … G41V (human)
T25 sequence (peptide, cyclic constrained): ARVWVTDGFSSLK

[6] = molecular target: T26, ApoC3 peptide … V43Q (human)
T26 sequence (peptide, cyclic constrained): ARGWQTDGFSSLK

[7] = molecular target: T27, ApoC3 peptide … G41P (human)
T27 sequence (peptide, cyclic constrained): ARPWVTDGFSSLK

ApoC3 peptide S62F = molecular target: T28, ApoC3 peptide S62F (human, not fully specified; cyclic (thioether))
T28 peptide: DKFFEFWDLDPEV

ApoC3 peptide L67A = molecular target: T29, ApoC3 peptide L67A (human, not fully specified; cyclic (thioether))
T29 peptide: DKFSEFWDADPEV

ApoC3 peptide E63Y = molecular target: T30, ApoC3 peptide E63Y (human, cyclic (thioether))
T30 peptide: DKFSYFWDLDPEV

ApoC3 peptide E63C = molecular target: T31, ApoC3 peptide E63C (human, not fully specified; cyclic (thioether))
T31 peptide: DKFSCFWDLDPEV

ApoC3 peptide L67E = molecular target: T32, ApoC3 peptide L67E (human, thioether (positions not given here); not fully specified (bridges); also: thioether between a C-terminal Cys side chain and a modified N-terminus, the Cys is not in the chain)
T32 peptide: DKFSEFWDEDPEV

B1: anti-ApoC3 antibody 14C7 (antibody, V domains shown)
VH: QVQVQESGPGLVKPSQTLSLTCTVSGGSITTNSYYWSWIRQPPGKGLEWMGAIDYSGDTYYSPSLKSRTSISRDTSKNQFTLQLTSVTPEDTAVYYCVSRIPTGEYWGQGTQVTVSS
VL: QTVVTQEPSLSVSPGGTVTLTCGLNSGSVTSSNYPDWYQQTPGQAPRLLIYNTNSRHSGVPSRFSGSISGNKAALTITGAQPEDEADYYCALYMGSDSVVFGGGTHLTVL
notes: it was detected with goat anti-human IgG (Fc); also called mAb 14C7; llama antibody 14C7
% of binding to wild-type peptide (ApoC3 peptide … G41W): 17.7%
% of binding to wild-type peptide (ApoC3 peptide … G41Q): 27.1%
% of binding to wild-type peptide (ApoC3 peptide … G41I): 5.33%
% of binding to wild-type peptide (ApoC3 peptide … A39C): 77.5%
% of binding to wild-type peptide (ApoC3 peptide … K51L): 0.33%
% of binding to wild-type peptide (ApoC3 peptide … T44E): 0%
% of binding to wild-type peptide (ApoC3 peptide … S49V): 0.59%
% of binding to wild-type peptide (ApoC3 peptide … V43I): 41%
% of binding to wild-type peptide (ApoC3 peptide … D45W): 0.06%
% of binding to wild-type peptide (ApoC3 peptide … G46L): 0%
% of binding to wild-type peptide (ApoC3 peptide … T44I): 1.86%
% of binding to wild-type peptide (ApoC3 peptide … K51A): 10.1%
% of binding to wild-type peptide (ApoC3 peptide … W42M): 79.4%
% of binding to wild-type peptide (ApoC3 peptide … S49H): 0.56%
% of binding to wild-type peptide (ApoC3 peptide … W42H): 48.6%
% of binding to wild-type peptide (ApoC3 peptide … G41Y): 6.27%
% of binding to wild-type peptide (ApoC3 peptide … S49Q): 0.33%
% of binding to wild-type peptide (ApoC3 peptide … T44F): 0%
% of binding to wild-type peptide (ApoC3 peptide … R40V): 57.5%
% of binding to wild-type peptide (ApoC3 peptide … S48H): 11.5%
% of binding to wild-type peptide (ApoC3 peptide … A39Q): 104%
% of binding to wild-type peptide [1]: 9.44%
% of binding to wild-type peptide [2]: 8.67%
% of binding to wild-type peptide [3]: 8.98%
% of binding to wild-type peptide [4]: 9.94%
% of binding to wild-type peptide [5]: 8.76%
% of binding to wild-type peptide [6]: 7.49%
% of binding to wild-type peptide [7]: 8.7%

B2: anti-ApoC3 antibody 6A6 (antibody, V domains shown)
VH: EVQLVESGGGLVQPGGSLRLSCAASGFTFSSYAGRWVRQVPGKGLEWVSSINAGGGSTSYADSVKGRFTISRDNAKNTLYLQMNSLKPEDTAKYYCTQNSYRYWGQGTRVAVSS
VL: DVVLTQTPGSLSVVPGESASISCKASQSLIHTDGKTYLYWLLQKPGQRPQLLIYQVSSHESGVPDRFTGSGSGTDFTLKISGVKAEDAGVYYCAQATYNPRTFGQGTKLEIK
notes: it was detected with goat anti-human IgG (Fc); also called mAb 6A6; llama antibody 6A6
% of binding to wild-type peptide (ApoC3 peptide S62F): 9.54%
% of binding to wild-type peptide (ApoC3 peptide L67A): 9.07%
% of binding to wild-type peptide (ApoC3 peptide E63Y): 8.92%
% of binding to wild-type peptide (ApoC3 peptide E63C): 7.93%
% of binding to wild-type peptide (ApoC3 peptide L67E): 8.52%
